Tests used:
[1] = molecular target: ΔN complex (Syb49–96:SyxH3:SNAP-25) (rat) (UniProt P63045); assay: fluorescence polarisation
[2] = molecular target: ΔN complex (Syb49–96:SyxH3:SNAP-25) (rat) (UniProt P63045); assay: ITC

Row | Substance | kon [1] | Kd [2] | dH [2]
1 | Syb1–96 V39A, V42A, S28C, labeled (from UniProt P63045 1-96) (domain or fragment) | 263000 M⁻¹ s⁻¹ |  | 
2 | Syb F77A (from UniProt P63045 1-96) (domain or fragment) |  | 0.8 nM | -18.8 kcal/mol

Reference: publication PMC2819690
